According to PMC4583379:

What was measured:
[1] = flow cytometry with anti-PilA antiserum; details: glycan lost; control: wild type NEM316
[2] = anti-PilA western, cell-wall extracts, stationary phase; details: glycan lost; control: wild type NEM316
[3] = anti-PilA western, membrane extracts, exponential phase; details: glycan lost; control: wild type NEM316
[4] = anti-PilA western, cell-wall extracts, exponential phase; details: glycan lost; control: wild type NEM316
[5] = anti-PilA western, supernatants of nisin-induced secreted PilA; details: glycan lost; control: wild-type PilAΔCWA

B1: PilA (Gbs1478), PI-2a pilus tip adhesin: N427Q (protein)
parent chain: MRKYQKFSKILTLSLFCLSQIPLNTNVLGESTVPENGAKGKLVVKKTDDQNKPLSKATFVLKTTAHPESKIEKVTAELTGEATFDNLIPGDYTLSEETAPEGYKKTNQTWQVKVESNGKTTIQNSGDKNSTIGQNHEELDKQYPPTGIYEDTKESYKLEHVKGSVPNGKSEAKAVNPYSSEGEHIREIPEGTLSKRISEVGDLAHNKYKIELTVSGKTIVKPVDKQKPLDVVFVLDNSNSMNNDGPNFQRHNKAKKAAEALGTAVKDILGANSDNRVALVTYGSDIFDGRSVDVVKGFKEDDKYYGLQTKFTIQTENYSHKQLTNNAEEIIKRIPTEAPRAKWGSTTNGLTPEQQKQYYLSKVGETFTMKAFMEADDILSQVDRNSQKIIVHITDGVPTRSYAINNFKLGASYESQFEQMKKNGYLNKSNFLLTDKPEDIKGNGESYFLFPLDSYQTQIISGNLQKLHYLDLNLNYPKGTIYRNGPVREHGTPTKLYINSLKQKNYDIFNFGIDISAFRQVYNEDYKKNQDGTFQKLKEEAFELSDGEITELMKSFSSKPEYYTPIVTSSDASNNEILSKIQQQFEKVLTKENSIVNGTIEDPMGDKINLQLGNGQTLQPSDYTLQGNDGSIMKDSIATGGPNNDGGILKGVKLEYIKNKLYVRGLNLGEGQKVTLTYDVKLDDSFISNKFYDTNGRTTLNPKSEDPNTLRDFPIPKIRDVREYPTITIKNEKKLGEIEFTKVDKDNNKLLLKGATFELQEFNEDYKLYLPIKNNNSKVVTGENGKISYKDLKDGKYQLIEAVSPKDYQKITNKPILTFEVVKGSIQNIIAVNKQISEYHEEGDKHLITNTHIPPKGIIPMTGGKGILSFILIGGSMMSIAGGIYIWKRYKKSSDISREKD
no change: expression_or_secretion [1] | stability_or_folding [2] | expression_or_secretion [3] | expression_or_secretion [4] | stability_or_folding [5]

B2: PilA (Gbs1478), PI-2a pilus tip adhesin: N597Q (protein)
parent chain: B1 parent chain
no change: expression_or_secretion [1] | stability_or_folding [2] | expression_or_secretion [3] | expression_or_secretion [4] | stability_or_folding [5]

B3: PilA (Gbs1478), PI-2a pilus tip adhesin: N427Q-N597Q (protein)
parent chain: B1 parent chain
no change: expression_or_secretion [1] | expression_or_secretion [3] | expression_or_secretion [4]
